Experimental data from patent US20040234998A1.

Columns and labels:
Assay in all cases: cell-based or functional assay
[1] = molecular target: 980903 (XM1): Purified mutant of Bacillus sub. wild type xylanase expressed in E. coli
[2] = molecular target: 980601 (BX): Purified preparation of Danisco's new bacterial xylanase expressed in E. coli (Bacillus subtilis) (UniProt P18429)
[3] = molecular target: 980603 (Röhm): Purified preparation of Frimond's Belase xylanase (identical to Röhm's) (Bacillus subtilis)

difference in inhibition between XM1 and XM2 [1]: 250%
residual activity of XM1 relative to rest activity of XM2 [1]: 2.5 times
Difference, % (average rest activity of 980601 against 980603) [2]: 25.6%
Inhibation, % (flour 98002) [2]: 67%
Inhibation, % (flour 98026) [2]: 75%
OD 590 (+inhibitor), xylanase activity on Xylazyme [2]: 0.165 OD 590
Residual activity, % [2]: 24.4%
Rest act., % (Avg) [2]: 29%
Rest act., % (flour 98002) [2]: 33%
Rest act., % (flour 98026) [2]: 25%
Vmax (Lineweaver-Burk plot, relative OD 590, with and without inhibitor) (relative OD 590) [2]: 1.19
Inhibation, % (flour 98002) [3]: 60.8%
Inhibation, % (flour 98026) [3]: 61.3%
Rest act., % (Avg) [3]: 39%
Rest act., % (flour 98002) [3]: 39.2%
Rest act., % (flour 98026) [3]: 38.7%
Substance: endogenous endo-β-1,4-xylanase inhibitor from wheat flour
